Test [1] deals with human cathepsin G (human) (UniProt P08311).
The target in test [2] is human cathepsin L (human).

From publication PMC4517634 come the findings set out here.

Chain of human cathepsin G (human) (P08311 21-244): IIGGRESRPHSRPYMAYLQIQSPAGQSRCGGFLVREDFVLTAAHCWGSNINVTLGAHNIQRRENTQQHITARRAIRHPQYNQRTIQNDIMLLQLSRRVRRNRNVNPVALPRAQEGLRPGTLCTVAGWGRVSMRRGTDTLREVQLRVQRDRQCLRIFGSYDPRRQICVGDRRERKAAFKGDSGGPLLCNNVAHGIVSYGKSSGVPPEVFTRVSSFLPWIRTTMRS

“recombinant His-tagged ANISERP protein (baculovirus system) (from UniProt F4MST7 1-397) (natural protein)” gave an IC50 of inhibition of cathepsin G (0.33 nM) proteolytic activity on N-succinyl-Ala-Ala-Phe-AMC in test [1] of 542 nM. The IC50 of inhibition of cathepsin L (0.83 nM) proteolytic activity on Z-Phe-Arg-AMC in test [2] was 217 nM. The substance also came in with an IC50 of inhibition of thrombin (74 nM) proteolytic activity on Boc-Val-Arg-AMC after 10 min at 37 °C with ANISERP with human thrombin (human) of 152 nM. Besides, the IC50 of inhibition of trypsin (54 nM) proteolytic activity on Boc-Gln-Ala-Arg-AMC with human trypsin (human) stood at 173 nM.
